# Experimental data published in patent US20110014656A1 (ZymoGenetics, published 2011).
# “And” between values parts separate entries of the source, which are not always exact repeats. Equal entries are not always repeated.
# T1: human IL-17RC, x1 splice variant, on transfected cells (human, UniProt Q8NAC3 21-791)
# T1 construct: Expressed on BHK, 293F or NIH3T3 cells; also called hIL-17RC; hIL-17RC (x1)
# T1 sequence: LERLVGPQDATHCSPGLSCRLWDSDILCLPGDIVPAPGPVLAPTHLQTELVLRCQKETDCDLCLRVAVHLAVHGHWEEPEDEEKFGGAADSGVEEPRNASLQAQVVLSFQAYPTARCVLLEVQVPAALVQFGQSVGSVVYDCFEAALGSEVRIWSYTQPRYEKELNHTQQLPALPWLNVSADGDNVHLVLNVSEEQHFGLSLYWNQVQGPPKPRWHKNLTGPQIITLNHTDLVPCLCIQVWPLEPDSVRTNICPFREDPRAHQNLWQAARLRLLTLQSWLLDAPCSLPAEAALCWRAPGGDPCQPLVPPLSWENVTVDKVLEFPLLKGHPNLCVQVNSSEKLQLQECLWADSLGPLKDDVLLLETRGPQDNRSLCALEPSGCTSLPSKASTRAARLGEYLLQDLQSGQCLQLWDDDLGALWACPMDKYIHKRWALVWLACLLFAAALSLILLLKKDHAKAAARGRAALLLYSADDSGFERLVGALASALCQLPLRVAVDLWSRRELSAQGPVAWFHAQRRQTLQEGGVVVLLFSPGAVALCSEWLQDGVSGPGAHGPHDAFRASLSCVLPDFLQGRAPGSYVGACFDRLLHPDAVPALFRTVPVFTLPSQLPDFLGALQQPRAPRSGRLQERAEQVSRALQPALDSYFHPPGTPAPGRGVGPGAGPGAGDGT
# T2: human IL-17 receptor (IL-17RA) on transfected cells (human, UniProt Q96F46 33-320)
# T2 sequence: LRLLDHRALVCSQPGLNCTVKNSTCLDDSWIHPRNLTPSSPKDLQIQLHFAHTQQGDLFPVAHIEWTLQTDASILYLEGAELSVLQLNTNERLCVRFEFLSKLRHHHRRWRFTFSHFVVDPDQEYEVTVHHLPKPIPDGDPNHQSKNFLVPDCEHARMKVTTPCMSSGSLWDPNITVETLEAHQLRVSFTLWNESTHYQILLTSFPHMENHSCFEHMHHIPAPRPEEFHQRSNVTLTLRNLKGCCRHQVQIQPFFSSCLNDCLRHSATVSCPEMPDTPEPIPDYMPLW
# B1: human IL-17F (ligand)
# chain: RKIPKVGHTFFQKPESCPPVPGGSMKLDIGIINENQRVSMSRNIESRSTSPWNYTVTWDPNRYPSEVVQAQCRNLGCINAQGKEDISMNSVPIQQETLVVRRKHQGCSVSFQLEKVLVTVGCTCVTPVIHHVQ
# notes: also called hIL-17F; hIL17F
# Assays:
# [1] = biological target: T1, human IL-17RC, x1 splice variant, on …; test: saturation binding, iodinated cytokine on transfected BHK cells
# [2] = biological target: T1, human IL-17RC, x1 splice variant, on …; test: competition, 100x molar cold ligand vs 125I-IL-17F on BHK hIL-17RC cells
# Experimental: (§1) Cold competitors were added in 100 fold molar excess. […] Wells were incubated on ice for 1-hour followed by two washes with PBS (Invitrogen 20012-027) and one wash with a high salt solution (1.5M NaCL, 50 mM HEPES pH 7.4). Wells were extracted with 500 ul of 0.8M NaOH for 30 min. at room temperature and counts per minute were measured in a gamma counter (Packard Cobra II A5005).
# [3] = biological target: T1, human IL-17RC, x1 splice variant, on …; test: saturation binding, 125I-cytokine on BHK cells; high affinity site of a two-site fit
# Experimental: as §1
# Transfected BHK cells were plated into 24-well dishes as in one. […] Separately, 100 fold molar excess of cold ligand was added at each dilution point. Cells were washed, extracted and counted as in one. Specific counts per minute were plotted against concentration of radiolabeled ligand added by subtracting the 100 fold excess counts from the uncompeted counts at each dilution point. These normalized data were plotted to generate saturation binding curves for each combination of radiolabeled ligand and transfected BHK cells.
# [4] = biological target: T2, human IL-17 receptor (IL-17RA) on …; test: cell-based or functional assay
# [5] = biological target: T1, human IL-17RC, x1 splice variant, on …; test: cell-based or functional assay
# [6] = biological target: T1, human IL-17RC, x1 splice variant, on …; test: competition, 100x molar cold ligand vs 125I-IL-17A on BHK hIL-17RC cells
# Experimental: as §1
binder,measurement,setting,value
B1,Kd,[1],1 nM
same,fold reduction of 125I-IL-17F binding,[2],~5 fold
same,Kd,[3],0.05 nM and 0.06 nM and 0.08 nM
same,"EC50, luciferase in nih3t3/kz142.8/IL-17R cells",[4],12.4 ng/mL
same,"EC50, luciferase in nih3t3/kz142.8/hcytor14X1 cells",[5],0.61 ng/mL
same,fold more potent EC50 in the recombinant line than in the parental line,[5],17 fold
same,fold reduction of 125I-IL-17A binding,[6],~7 fold
